Publication PMC12380113

Tests used:
[1] = target: T1, CD34 (human orbital fibroblasts) (Homo sapiens) (UniProt P28906); experiment: flow cytometry; settings: whole-cell binding to human orbital fibroblasts, 4 C, 1 h, SELEX binding buffer: DPBS, 4.5 mg/mL D-glucose, 5 mM MgCl2, 1 mg/mL BSA, 1 mg/mL yeast tRNA, flow cytometry at 4 C, pull-down lysis buffer 5 mM …
T1 sequence: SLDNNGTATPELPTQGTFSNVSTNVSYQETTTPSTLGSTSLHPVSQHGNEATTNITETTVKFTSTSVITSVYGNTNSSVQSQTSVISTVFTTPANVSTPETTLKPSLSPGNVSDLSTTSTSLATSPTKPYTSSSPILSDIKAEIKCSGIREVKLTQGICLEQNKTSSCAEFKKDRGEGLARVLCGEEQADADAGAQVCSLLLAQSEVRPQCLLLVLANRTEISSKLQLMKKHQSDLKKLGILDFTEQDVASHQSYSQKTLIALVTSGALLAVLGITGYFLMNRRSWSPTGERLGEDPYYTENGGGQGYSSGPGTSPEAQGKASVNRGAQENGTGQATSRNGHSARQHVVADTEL

[2] = target: T2, CD34 (mouse orbital fibroblasts) (Mus musculus) (UniProt Q64314); experiment: flow cytometry; settings: whole-cell binding to mouse orbital fibroblasts, 4 C, 1 h, SELEX binding buffer: DPBS, 4.5 mg/mL D-glucose, 5 mM MgCl2, 1 mg/mL BSA, 1 mg/mL yeast tRNA, flow cytometry at 4 C, pull-down lysis buffer 5 mM …
T2 sequence: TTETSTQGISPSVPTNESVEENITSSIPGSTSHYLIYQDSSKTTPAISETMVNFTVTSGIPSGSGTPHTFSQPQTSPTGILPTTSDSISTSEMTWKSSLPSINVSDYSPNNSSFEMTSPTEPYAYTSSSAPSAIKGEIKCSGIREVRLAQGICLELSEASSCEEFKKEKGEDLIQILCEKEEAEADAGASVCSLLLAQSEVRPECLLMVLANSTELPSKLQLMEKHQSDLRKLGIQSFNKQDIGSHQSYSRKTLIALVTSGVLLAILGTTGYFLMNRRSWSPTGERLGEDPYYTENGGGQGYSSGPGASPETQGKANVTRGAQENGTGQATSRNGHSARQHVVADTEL

What does the source list for “CAGCACCGTCAACTGAATCTCATTGCGGCGTCCGGCTGGACGTTATTGTTGGAACCGTGATGCGATGGAGATGT [CD34 Apt (FAM)]”?
Kd [1]: 19.1 nM; Kd [2]: 90.3 nM
